The values that follow come from article PMC3752466 (Nature communications, 2013).

The target in the assay is T1, BoNT/B-HC (binding domain of botulinum neurotoxin type B, residues 857-1291) (UniProt P10844 857-1291).
T1 sequence: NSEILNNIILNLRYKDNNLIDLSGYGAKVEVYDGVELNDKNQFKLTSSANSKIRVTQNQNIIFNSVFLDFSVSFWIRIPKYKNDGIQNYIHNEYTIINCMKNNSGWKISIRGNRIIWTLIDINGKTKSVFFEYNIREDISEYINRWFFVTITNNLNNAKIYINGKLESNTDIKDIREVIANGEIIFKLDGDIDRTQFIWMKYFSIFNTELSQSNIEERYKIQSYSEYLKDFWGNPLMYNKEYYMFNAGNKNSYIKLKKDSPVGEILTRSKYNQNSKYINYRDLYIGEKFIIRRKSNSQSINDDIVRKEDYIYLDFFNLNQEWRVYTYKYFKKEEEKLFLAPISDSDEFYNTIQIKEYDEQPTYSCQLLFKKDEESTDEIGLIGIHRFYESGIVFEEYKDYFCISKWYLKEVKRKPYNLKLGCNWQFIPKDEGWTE
Description: ITC. In general terms: Isothermal titration calorimetry measures the heat released or taken up as one component is titrated into another.

Values joined by “and” are separate entries in the source; they are usually repeats but may differ in a detail not shown here. Identical values can stand only once.

Broadly, the Kd is the constant that tells how readily two partners part at equilibrium. On to GESQEDMFAKLKDKFFNEINK [rat Syt-II peptide (residue 40-60)], for which the Kd is 140 nM and 180 nM.
